2 molecules from publication PMC3842537 can be followed below.

Data set [1] deals with thrombin (human, UniProt P00734;P00734 328-363;364-622). In words: FAM fluorescence recovery on GO array.
For data set [2], the target named is PDGF-BB (human, UniProt P01127 82-190). The experiment in a line: FAM fluorescence recovery on GO array.
PDGF-BB, sequence (P01127 82-190): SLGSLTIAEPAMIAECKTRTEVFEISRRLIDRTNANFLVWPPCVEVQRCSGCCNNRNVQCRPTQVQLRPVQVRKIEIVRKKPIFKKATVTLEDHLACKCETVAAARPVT

B1: thrombin aptamer (TASSET) (structured_DNA)
DNA: AGTCCGTGGTAGGGCAGGTTGGGGTGACT
With B1, the binding result in data set [1] was “binds”.

B2: PDGF aptamer (structured_DNA)
DNA: CAGGCTACGGCACGTAGAGCATCACCATGATCCTG
For B2, the binding result in data set [2] is given as “binds”.
